# Measured values: publication PMC4995097, “Talin-KANK1 interaction controls the recruitment of cortical microtubule stabilizing complexes to focal adhesions” (eLife, 2016)
# B1: KANK1: full-length KANK1, BioGFP- or GFP-tagged; siRNA-resistant version for rescue (protein)
# chain: MAHTTKVNGSASGKAGDILSGDQDKEQKDPYFVETPYGYQLDLDFLKYVDDIQKGNTIKRLNIQKRRKPSVPCPEPRTTSGQQGIWTSTESLSSSNSDDNKQCPNFLIARSQVTSTPISKPPPPLETSLPFLTIPENRQLPPPSPQLPKHNLHVTKTLMETRRRLEQERATMQMTPGEFRRPRLASFGGMGTTSSLPSFVGSGNHNPAKHQLQNGYQGNGDYGSYAPAAPTTSSMGSSIRHSPLSSGISTPVTNVSPMHLQHIREQMAIALKRLKELEEQVRTIPVLQVKISVLQEEKRQLVSQLKNQRAASQINVCGVRKRSYSAGNASQLEQLSRARRSGGELYIDYEEEEMETVEQSTQRIKEFRQLTADMQALEQKIQDSSCEASSELRENGECRSVAVGAEENMNDIVVYHRGSRSCKDAAVGTLVEMRNCGVSVTEAMLGVMTEADKEIELQQQTIESLKEKIYRLEVQLRETTHDREMTKLKQELQAAGSRKKVDKATMAQPLVFSKVVEAVVQTRDQMVGSHMDLVDTCVGTSVETNSVGISCQPECKNKVVGPELPMNWWIVKERVEMHDRCAGRSVEMCDKSVSVEVSVCETGSNTEESVNDLTLLKTNLNLKEVRSIGCGDCSVDVTVCSPKECASRGVNTEAVSQVEAAVMAVPRTADQDTSTDLEQVHQFTNTETATLIESCTNTCLSTLDKQTSTQTVETRTVAVGEGRVKDINSSTKTRSIGVGTLLSGHSGFDRPSAVKTKESGVGQININDNYLVGLKMRTIACGPPQLTVGLTASRRSVGVGDDPVGESLENPQPQAPLGMMTGLDHYIERIQKLLAEQQTLLAENYSELAEAFGEPHSQMGSLNSQLISTLSSINSVMKSASTEELRNPDFQKTSLGKITGNYLGYTCKCGGLQSGSPLSSQTSQPEQEVGTSEGKPISSLDAFPTQEGTLSPVNLTDDQIAAGLYACTNNESTLKSIMKKKDGNKDSNGAKKNLQFVGINGGYETTSSDDSSSDESSSSESDDECDVIEYPLEEEEEEEDEDTRGMAEGHHAVNIEGLKSARVEDEMQVQECEPEKVEIRERYELSEKMLSACNLLKNTINDPKALTSKDMRFCLNTLQHEWFRVSSQKSAIPAMVGDYIAAFEAISPDVLRYVINLADGNGNTALHYSVSHSNFEIVKLLLDADVCNVDHQNKAGYTPIMLAALAAVEAEKDMRIVEELFGCGDVNAKASQAGQTALMLAVSHGRIDMVKGLLACGADVNIQDDEGSTALMCASEHGHVEIVKLLLAQPGCNGHLEDNDGSTALSIALEAGHKDIAVLLYAHVNFAKAQSPGTPRLGRKTSPGPTHRGSFD
# modifications: biotinylated on the Bio tag (by BirA); left off: biotinylation (Bio) tag, end not stated, kept | GFP, end not stated, kept
# notes: full-length KANK1, BioGFP- or GFP-tagged; siRNA-resistant version for rescue
# System: talin1 / talin2 (HEK293T cells)
# Assay: Streptavidin pull down of Bio-GFP-KANK1 combined with mass spectrometry
# Format: binding, human
# Procedure: Streptavidin-based pull down assays of biotinylated proteins expressed using pBioGFP-C1 constructs transfected in HEK293T cells was performed and analyzed as previously described ([van der Vaart et al., 2013]). For mass spectrometry sample preparation, streptavidin beads resulting from pull-downs assays were ran on a 12% Bis-Tris 1D SDS-PAGE gel (Biorad) for 1 cm and stained with colloidal coomassie dye G-250 (Gel Code Blue Stain Reagent, Thermo Scientific). The lane was cut and treated with 6.5 mM dithiothreitol (DTT) for 1 hr at 60°C for reduction and 54 mM iodoacetamide for 30 min for alkylation. The proteins were digested overnight with trypsin (Promega) at 37°C. The peptides were extracted with 100% acetonitrile (ACN) and dried in a vacuum concentrator. For RP-nanoLC-MS/MS, samples were resuspended in 10% formic acid (FA) / 5% DMSO and was analyzed using a Proxeon Easy-nLC100 (Thermo Scientific) connected to an Orbitrap Q-Exactive mass spectrometer. Samples were first trapped (Dr Maisch Reprosil C18, 3 μm, 2 cm × 100 μm) before being separated on an analytical column (Agilent Zorbax 1.8 μm SB-C18, 40 cm × 50 μm), using a gradient of 180 min at a column flow of 150 nl min^-1. […]
molecule,measurement,value
B1,binding partner found by mass spectrometry: talin1 (in words),we identified talin1 among the strongest hits
